# Test results reported in patent US20140336130A1 (PHIGENIX, INC., priority 2011, published 2014).
# Assays:
# Type in all cases: cell-based, human
# LNCaP [1] = test: MTT cell viability assay, LNCaP; details: DEFB1 (hBD-1) induced with 10 μM PonA, 24-72 h
# Protocol: Reactions were performed three times in triplicate.
# DU145, PC3 and LNCaP cells […] were transfected with 0.5 μg of the PAX2 siRNA pool or control siRNA pool using Codebreaker transfection reagent according to the manufacturer's protocol (Promega). Next, cell suspensions were diluted and seeded onto a 96-well plate at 1-5×10^3 cells per well and allowed to grow for 2-, 4- or 6 days. After culture, cell viability was determined by measuring the conversion of 3-[4,5-dimethylthiazol-2yl]-2,5 diphenyl tetrazolium bromide, MTT (Promega), to a colored formazan product. Absorbance was read at 540 nm on a scanning multiwell spectrophotometer.
# (§1) To examine the effects of hBD-1 on cell growth, metabolic 3-[4,5-dimethylthiazol-2yl]-2,5-diphenyl tetrazolium bromide (MTT) assay was performed. DU145, LNCaP, PC3 and PC3/AR+ cells co-transfected with pvgRXR plasmid and pIND/hBD-1 construct or control pvgRXR plasmid were seeded onto a 96-well plate at 1-5×10^3 cells per well. Twenty-four hours after seeding, fresh growth medium was added containing 10 μM Pon A daily to induce hBD-1 expression for 24, 48 and 72 h after which the MTT assay was performed according to the manufacturer's instructions (Promega). Reactions were performed three times in triplicate.
# MTT cytotoxicity assay was performed as described in Example 1.
# PC3/AR+ = test: MTT cell viability assay, PC3/AR+; details: PC3 with ectopic AR expression; hBD-1 induced
# Protocol: as §1
# DU145 [2] = test: Flow cytometry Annexin V-FITC/PI, DU145
# Protocol: The remaining attached cells were harvested by trypsinization and combined with the detached cells and PBS. The cells were then pelleted at 4° C. (500×g) for 5 min, washed twice in PBS, and resuspended in 100 μl of 1× Annexin binding buffer ([…]) containing 5 μl of Annexin V-FITC and 5 μl of PI. The cells were incubated at RT for 15 min in the dark, then diluted with 400 μl of 1× Annexin binding buffer and analyzed by FACscan (Becton Dickinson, San Jose, Calif.). All reactions were performed three times.
# PC3 and DU145 cells transfected with the hBD-1 expression system were grown in 60-mm dishes and induced for 12, 24, and 48 h with 10 μM Pon A. The cells were harvested and analyzed by flow cytometry as described in Example 1.
# PC3 [3] = test: Flow cytometry Annexin V-FITC/PI, PC3
# Protocol: The remaining attached cells were harvested by trypsinization and combined with the detached cells and PBS. The cells were then pelleted at 4° C. (500×g) for 5 min, washed twice in PBS, and resuspended in 100 μl of 1× Annexin binding buffer (0.1 M Hepes/NaOH at pH 7.4, 1.4 M NaCl, 25 mM CaCl2) containing 5 μl of Annexin V-FITC and 5 μl of PI. The cells were incubated at RT for 15 min in the dark, then diluted with 400 μl of 1× Annexin binding buffer and analyzed by FACscan (Becton Dickinson, San Jose, Calif.). All reactions were performed three times.
# DU145 [4] = test: Pan-caspase detection (FAM-VAD-FMK, confocal), DU145; details: DEFB1 (hBD-1) induction 24 h
# Protocol: (§2) Detection of caspase activity in the prostate cancer cell lines was performed using APO LOGIX™ Carboxyfluorescin Caspase detection kit (Cell Technology, Mountain View, Calif.). Active caspases were detected through the use of a FAM-VAD-FMK inhibitor that irreversibly binds to active caspases. […] Next, 10 μl of a 30× working dilution of carboxyfluorescein labeled peptide fluoromethyl ketone (FAM-VAD-FMK) was added to 300 μl of media and added to each 35 mm dish. Cells were then incubated for 1 hour at 37° C. under 5% CO2. Then, the medium was aspirated and the cells were washed twice with 2 ml of a 1× Working dilution Wash Buffer. Cells were viewed under differential interference contrast (DIC) or under laser excitation at 488 nm. The fluorescent signal was analyzed using a confocal microscope (Zeiss LSM 5 Pascal) and a 63×DIC oil lens with a Vario 2 RGB Laser Scanning Module.
# (§3) Detection of caspase activity in the prostate cancer cell lines was performed s described in Example 1.
# (§4) Detection of caspase activity in the prostate cancer cell lines was performeds described in Example 1.
# (§5) Detection of caspase activity in the prostate cancer cell lines was performed as described in Example 1.
# PC3 [5] = test: Pan-caspase detection (FAM-VAD-FMK, confocal), PC3; details: DEFB1 (hBD-1) induction 24 h
# Protocol: as §2, §3, §4, §5
# LNCaP [6] = test: Pan-caspase detection (FAM-VAD-FMK, confocal), LNCaP; details: DEFB1 (hBD-1) induction 24 h
# Protocol: as §2, §3, §4, §5
# DU145 [7] = test: Membrane integrity AO/EtBr dual staining, DU145
# Protocol: (§6) Acridine orange (AO)/ethidium bromide (EtBr) dual staining was performed to identify changes in cell membrane integrity, as well as apoptotic cells by staining the condensed chromatin. AO stains viable cells as well as early apoptotic cells, whereas EtBr stains late stage apoptotic cells that have lost membrane permeability. Briefly, cells were seeded into 2 chamber culture slides (BD Falcon, USA). […] In order to determine the effect of PAX2 inhibition on membrane integrity, separate culture slides containing DU145, PC3 and LNCaP were treated with PAX2 siRNA and incubated for 4 days. […] Fluorescence was viewed by a Zeiss LSM 5 Pascal Vario 2 Laser Scanning Confocal Microscope (Carl Zeiss Jena, Germany). […] Slides were analyzed under 40× magnification and digital images were stored as uncompressed TIFF files and exported into Photoshop CS software (Adobe Systems, San Jose, Calif.) for image processing and hard copy presentation. […]
# (§7) Fluorescence was viewed by a Zeiss LSM 5 Pascal Vario 2 Laser Scanning Confocal Microscope (Carl Zeiss). […] Slides were analyzed under 40× magnification and digital images were stored as uncompressed TIFF files and exported into Photoshop CS software (Adobe Systems) for image processing and hard copy presentation. […]
# PC3 [8] = test: Membrane integrity AO/EtBr dual staining, PC3
# Protocol: as §6, §7
# LNCaP [9] = test: Membrane integrity AO/EtBr dual staining, LNCaP; details: hBD-1 induction 48 h
# Protocol: as §6, §7
# DU145 [10] = test: Phase contrast microscopy of cell growth, DU145; details: DEFB1 induction 48 h
# Protocol: (§8) Cell morphology was analyzed by phase contrast microscopy. […] The following day plasmid-containing cells were induced for a period of 48 h with media containing 10 μM Ponasterone A, while control cells received fresh media. The cells were then viewed under an inverted Zeiss IM 35 microscope (Carl Zeiss, Germany). Phase contrast pictures of a field of cells were obtained using the SPOT Insight Mosaic 4.2 camera (Diagnostic Instruments, USA). Cells were examined by phase contrast microscopy under 32× magnification and digital images were stored as uncompressed TIFF files and exported into Photoshop CS software (Adobe Systems, San Jose, Calif.) for image processing and hard copy presentation.
# (§9) The effect of PAX2 knock-down on cell growth was analyzed by phase contrast microscopy as described in Example 1.
# (§10) The effect of PAX2 knockdown on cell number was analyzed by phase contrast microscopy as described in Example 1.
# PC3 [11] = test: Phase contrast microscopy of cell growth, PC3; details: DEFB1 induction 48 h
# Protocol: as §8, §9, §10
# LNCaP [12] = test: Phase contrast microscopy of cell growth, LNCaP; details: DEFB1 induction 48 h
# Protocol: as §8, §9, §10
molecule,measurement,setting,value
"DEFB1: human beta defensin-1 (SEQ ID NO:63), expressed in cells from Ponasterone A inducible pIND/DEFB1 construct (protein, listed as Homo sapiens) MRTSYLLLFTLCLLLSEMASGGNFLTGLGHRSDHYNCVSSGGQCLYSACPIFTKIQGTCYRGKAKCCK",effect on cell viability,LNCaP [1],no significant effect
same,"hBD-1 cytotoxicity, PC3/AR+ compared with PC3",PC3/AR+,no difference
same,"number of apoptotic cells (annexin V/PI, lower and upper right quadrants)",DU145 [2]; DEFB1 (hBD-1) induction 12 h,12%
same,"number of apoptotic cells (annexin V/PI, lower and upper right quadrants)",DU145 [2]; DEFB1 (hBD-1) induction 24 h,34%
same,"number of apoptotic cells (annexin V/PI, lower and upper right quadrants)",DU145 [2]; DEFB1 (hBD-1) induction 48 h,59%
same,"number of apoptotic cells (annexin V/PI, lower and upper right quadrants)",PC3 [3]; DEFB1 (hBD-1) induction 12 h,10%
same,"number of apoptotic cells (annexin V/PI, lower and upper right quadrants)",PC3 [3]; DEFB1 (hBD-1) induction 24 h,20%
same,caspase activity (green FAM-VAD-FMK staining),DU145 [4],green staining
same,caspase activity (green FAM-VAD-FMK staining),PC3 [5],green staining
same,caspase activity (green FAM-VAD-FMK staining),LNCaP [6],no green staining
same,membrane integrity (AO/EtBr staining),DU145 [7]; DEFB1 (hBD-1) induction 24 h,accumulation of EtBr in the cytoplasm
same,membrane integrity (AO/EtBr staining),DU145 [7]; DEFB1 (hBD-1) induction 48 h,possessed condensed nuclei and appeared yellow
same,membrane integrity (AO/EtBr staining),PC3 [8]; DEFB1 (hBD-1) induction 24 h,accumulation of EtBr in the cytoplasm
same,membrane integrity (AO/EtBr staining),PC3 [8]; DEFB1 (hBD-1) induction 48 h,possessed condensed nuclei and appeared yellow
same,membrane integrity (AO/EtBr staining),LNCaP [9],no observable alterations to membrane integrity
same,cell number,DU145 [10],significant reduction in cell number
same,cell number,PC3 [11],significant reduction in cell number
same,cell proliferation,LNCaP [12],no effect on cell proliferation
